We go through 10 molecules from patent publication US20240279333A1 (SYSTIMMUNE, published 2024).

Experiment [1] has as its target T1, human PD-L1 on transfected CHO cells (human, UniProt Q9NZQ7 19-290).
T1 construct: whole, on cells; also called PD-L1 expressing CHO cells; human PD-L1 transfected CHO cells
Kind of experiment: FACS on human PD-L1 transfected CHO cells, PE goat anti-human IgG Fc secondary; y axis without label.

The target in experiment [2] is T2, full length human ROR1 stably expressed on CHO cells (human, UniProt Q01973 30-937).
T2 construct: whole, on cells; also called ROR1-CHO cells; human ROR1 transfected CHO cells
Kind of experiment: FACS on CHO cells stably expressing full length human ROR1, PE goat anti-human IgG Fc secondary; y axis without label.

Experiment [3] addresses T3, human 4-1BB on transfected CHO cells (human, UniProt Q07011 24-255).
T3 construct: whole, on cells; also called 41BB expressing CHO cells; human 41BB transfected CHO cells
Kind of experiment: FACS on human 4-1BB transfected CHO cells, PE goat anti-human IgG Fc secondary; y axis without label.

In experiment [4] the target is 4-1BB protein antigen (immobilized on the sensor) (UniProt Q07011 24-186, limits assumed). Kind of experiment: Octet RED96, antigen immobilized.
For experiment [5], the target named is PD-L1 protein antigen (immobilized on the sensor) (UniProt Q9NZQ7 19-238, limits assumed). Kind of experiment: Octet RED96, antigen immobilized. A general note: BLI is a label-free optical method that tracks binding on a fibre tip over time.
Experiment [6] deals with T4, CD3 e/d antigen (immobilized on the sensor) (UniProt P07766 23-126; P04234 22-105).
T4 construct: 'e/d' read as epsilon/delta; construct not described
Kind of experiment: Octet RED96, antigen immobilized.

B1: SI-35E18 (460C3-L1H1-scFv x PL230C6-Fab x 323H7-H4L1-scFv x 284A10-H1L1-scFv) (antibody, human IgG1, kappa)
heavy: not shown
light: AYDMTQSPSSVSASVGDRVTIKCQASEDIYSFLAWYQQKPGKAPKLLIHSASSLASGVPSRFSGSGSGTDFTLTISSLQPEDFATYYCQQGYGKNNVDNAFGGGTKVEIKRTVAAPSVFIFPPSDEQLKSGTASVVCLLNNFYPREAKVQWKVDNALQSGNSQESVTEQDSKDSTYSLSSTLTLSKADYEKHKVYACEVTHQGLSSPVTKSFNRGEC
notes: Tetra-specific antibody, symmetric dimer
As to B1, the binding result in experiment [1], in experiment [2] and in experiment [3] was “binds” each time.

B2: SI-39E13 (420H5 x PL230 x 284A10 x 806) (antibody, human IgG1, kappa)
heavy: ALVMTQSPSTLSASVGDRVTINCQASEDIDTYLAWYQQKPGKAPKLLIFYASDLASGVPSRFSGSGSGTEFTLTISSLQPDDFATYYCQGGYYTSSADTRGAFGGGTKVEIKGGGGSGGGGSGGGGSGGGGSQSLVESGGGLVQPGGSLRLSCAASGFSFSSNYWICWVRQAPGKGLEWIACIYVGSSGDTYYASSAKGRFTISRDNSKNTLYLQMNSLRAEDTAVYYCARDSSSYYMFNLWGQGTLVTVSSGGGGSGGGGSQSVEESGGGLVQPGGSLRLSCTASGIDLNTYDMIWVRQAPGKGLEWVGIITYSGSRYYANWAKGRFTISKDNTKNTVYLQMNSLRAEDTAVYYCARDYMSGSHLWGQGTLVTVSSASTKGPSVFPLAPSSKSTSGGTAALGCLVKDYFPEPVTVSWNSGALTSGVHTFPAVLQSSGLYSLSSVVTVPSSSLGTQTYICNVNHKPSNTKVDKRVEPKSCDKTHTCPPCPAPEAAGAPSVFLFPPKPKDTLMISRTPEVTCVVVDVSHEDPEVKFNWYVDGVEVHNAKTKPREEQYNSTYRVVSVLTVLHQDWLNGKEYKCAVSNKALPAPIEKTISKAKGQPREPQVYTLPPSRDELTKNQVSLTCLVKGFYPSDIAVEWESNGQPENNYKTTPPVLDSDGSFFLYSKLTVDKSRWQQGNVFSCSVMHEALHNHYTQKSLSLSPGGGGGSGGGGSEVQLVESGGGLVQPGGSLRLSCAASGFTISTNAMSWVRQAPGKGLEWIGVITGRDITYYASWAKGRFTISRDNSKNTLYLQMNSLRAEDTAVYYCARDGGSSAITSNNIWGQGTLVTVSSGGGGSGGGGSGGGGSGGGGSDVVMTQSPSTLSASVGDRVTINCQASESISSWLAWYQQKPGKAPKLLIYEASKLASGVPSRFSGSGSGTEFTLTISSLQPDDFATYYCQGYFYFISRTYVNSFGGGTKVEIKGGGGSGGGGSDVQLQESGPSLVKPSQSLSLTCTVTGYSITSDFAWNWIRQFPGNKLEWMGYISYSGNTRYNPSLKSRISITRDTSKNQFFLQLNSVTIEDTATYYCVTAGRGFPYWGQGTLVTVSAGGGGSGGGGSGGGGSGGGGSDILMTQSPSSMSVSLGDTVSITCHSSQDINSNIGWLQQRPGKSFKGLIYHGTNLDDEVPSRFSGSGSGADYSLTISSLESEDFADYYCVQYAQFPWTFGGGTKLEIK
light: AYDMTQSPSSVSASVGDRVTIKCQASEDIYSFLAWYQQKPGKAPKLLIHSASSLASGVPSRFSGSGSGTDFTLTISSLQPEDFATYYCQQGYGKNNVDNAFGGGTKVEIKRTVAAPSVFIFPPSDEQLKSGTASVVCLLNNFYPREAKVQWKVDNALQSGNSQESVTEQDSKDSTYSLSSTLTLSKADYEKHKVYACEVTHQGLSSPVTKSFNRGEC
notes: as for B1
Take B2: in experiment [4], the Kd (commonly the concentration at which binding is half-saturated) was found to be 0.117 nM; the Response worked out at 2.47; the off-rate constant (koff) (usually the first-order rate constant of dissociation) was found to be 2.65e-05 s⁻¹; the kon (in general, the rate constant with which the complex forms) came to 227000 M⁻¹ s⁻¹. Moreover, in experiment [5], the equilibrium dissociation constant (Kd) came to 0.0801 nM, the Response was 1.92, the koff is 3.32e-05 s⁻¹ and the kon turned out to be 415000 M⁻¹ s⁻¹. In experiment [6], this molecule showed a dissociation constant Kd of less than 0.001 nM, a Response of 1.8, an off-rate (koff) of less than 1e-07 s⁻¹ and a kon of 104000 M⁻¹ s⁻¹.

B3: SI-35E24 (460C3 x PL230C6 x 330F11 x 284A10) (antibody, human IgG1, kappa)
heavy: not shown
light: AYDMTQSPSSVSASVGDRVTIKCQASEDIYSFLAWYQQKPGKAPKLLIHSASSLASGVPSRFSGSGSGTDFTLTISSLQPEDFATYYCQQGYGKNNVDNAFGGGTKVEIKRTVAAPSVFIFPPSDEQLKSGTASVVCLLNNFYPREAKVQWKVDNALQSGNSQESVTEQDSKDSTYSLSSTLTLSKADYEKHKVYACEVTHQGLSSPVTKSFNRGEC
notes: Tetra-specific antibody, symmetric dimer; also called SI-3524
As to B3, the binding result in experiment [2] was “no binding (tested: 10 nM)”.

B4: SI-35E26 (466F6 x PL230C6 x 330F11 x 284A10) (antibody, human IgG1, kappa)
heavy: not shown
light: AYDMTQSPSSVSASVGDRVTIKCQASEDIYSFLAWYQQKPGKAPKLLIHSASSLASGVPSRFSGSGSGTDFTLTISSLQPEDFATYYCQQGYGKNNVDNAFGGGTKVEIKRTVAAPSVFIFPPSDEQLKSGTASVVCLLNNFYPREAKVQWKVDNALQSGNSQESVTEQDSKDSTYSLSSTLTLSKADYEKHKVYACEVTHQGLSSPVTKSFNRGEC
notes: Tetra-specific antibody, symmetric dimer; also called '26' in 'SI-3524, 25, and 26'
For the molecule B4, the binding result in experiment [2] is recorded as “no binding (tested: 10 nM)”.

B5: SI-35E25 (420H5 x PL230C6 x 330F11 x 284A10) (antibody, human IgG1, kappa)
heavy: not shown
light: AYDMTQSPSSVSASVGDRVTIKCQASEDIYSFLAWYQQKPGKAPKLLIHSASSLASGVPSRFSGSGSGTDFTLTISSLQPEDFATYYCQQGYGKNNVDNAFGGGTKVEIKRTVAAPSVFIFPPSDEQLKSGTASVVCLLNNFYPREAKVQWKVDNALQSGNSQESVTEQDSKDSTYSLSSTLTLSKADYEKHKVYACEVTHQGLSSPVTKSFNRGEC
notes: Tetra-specific antibody, symmetric dimer; also called '25' in 'SI-3524, 25, and 26'
Regarding B5, the binding result in experiment [2] is on record as “no binding (tested: 10 nM)”.

B6: SI-39E10 (420H5 x PL230 x 806 x 284A10) (antibody, human IgG1, kappa)
heavy: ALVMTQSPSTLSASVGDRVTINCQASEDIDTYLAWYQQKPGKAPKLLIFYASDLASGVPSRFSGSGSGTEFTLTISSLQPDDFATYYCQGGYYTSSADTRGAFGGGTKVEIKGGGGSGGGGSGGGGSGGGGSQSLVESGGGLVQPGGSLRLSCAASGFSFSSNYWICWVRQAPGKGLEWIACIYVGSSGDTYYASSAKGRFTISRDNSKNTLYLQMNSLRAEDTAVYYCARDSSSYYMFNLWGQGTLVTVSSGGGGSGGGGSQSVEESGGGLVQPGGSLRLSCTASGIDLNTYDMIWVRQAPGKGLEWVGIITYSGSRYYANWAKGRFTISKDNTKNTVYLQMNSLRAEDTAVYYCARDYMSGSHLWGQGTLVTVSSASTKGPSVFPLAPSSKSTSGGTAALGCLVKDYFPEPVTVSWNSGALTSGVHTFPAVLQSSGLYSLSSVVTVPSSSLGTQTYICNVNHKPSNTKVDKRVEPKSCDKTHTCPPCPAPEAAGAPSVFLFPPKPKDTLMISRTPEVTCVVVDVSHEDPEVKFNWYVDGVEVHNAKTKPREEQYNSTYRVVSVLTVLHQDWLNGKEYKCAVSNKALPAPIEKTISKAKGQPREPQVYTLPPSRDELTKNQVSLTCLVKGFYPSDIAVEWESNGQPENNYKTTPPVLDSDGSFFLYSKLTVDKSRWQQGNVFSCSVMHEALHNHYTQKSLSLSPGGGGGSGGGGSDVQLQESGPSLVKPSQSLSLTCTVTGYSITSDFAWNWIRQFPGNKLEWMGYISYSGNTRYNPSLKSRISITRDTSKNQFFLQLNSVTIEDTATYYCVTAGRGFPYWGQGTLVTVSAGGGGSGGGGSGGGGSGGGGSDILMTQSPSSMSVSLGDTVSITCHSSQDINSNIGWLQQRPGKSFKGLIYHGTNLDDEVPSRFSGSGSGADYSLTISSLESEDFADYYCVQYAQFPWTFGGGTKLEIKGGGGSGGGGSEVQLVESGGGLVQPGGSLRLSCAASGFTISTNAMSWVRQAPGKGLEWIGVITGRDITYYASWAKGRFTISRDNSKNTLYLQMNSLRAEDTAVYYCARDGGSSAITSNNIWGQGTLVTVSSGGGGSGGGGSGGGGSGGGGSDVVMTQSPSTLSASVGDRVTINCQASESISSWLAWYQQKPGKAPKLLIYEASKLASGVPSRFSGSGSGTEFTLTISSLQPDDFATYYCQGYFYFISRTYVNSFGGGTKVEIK
light: AYDMTQSPSSVSASVGDRVTIKCQASEDIYSFLAWYQQKPGKAPKLLIHSASSLASGVPSRFSGSGSGTDFTLTISSLQPEDFATYYCQQGYGKNNVDNAFGGGTKVEIKRTVAAPSVFIFPPSDEQLKSGTASVVCLLNNFYPREAKVQWKVDNALQSGNSQESVTEQDSKDSTYSLSSTLTLSKADYEKHKVYACEVTHQGLSSPVTKSFNRGEC
notes: as for B1
In experiment [4], B6 yielded a dissociation constant Kd of 0.0356 nM, a Response of 2.63, a koff of 7.43e-06 s⁻¹ and a kon of 209000 M⁻¹ s⁻¹. Further, in experiment [5], binding was characterised by a dissociation constant (Kd) of 0.0685 nM, the Response was 1.94, the off-rate (koff) was determined as 2.61e-05 s⁻¹ and the kon turned out to be 381000 M⁻¹ s⁻¹. Further, in experiment [6], the Kd was less than 0.001 nM, the Response was found to be 2.24, the off-rate constant (koff) was less than 1e-07 s⁻¹ and the association rate constant (kon) turned out to be 110000 M⁻¹ s⁻¹.

B7: SI-39E29 (806 x 284A10 x PL221 x 420H5) (antibody)
heavy: not shown
light: DVVMTQSPSTLSASVGDRVTINCQASESISSWLAWYQQKPGKAPKLLIYEASKLASGVPSRFSGSGSGTEFTLTISSLQPDDFATYYCQGYFYFISRTYVNSFGGGTKVEIKRTVAAPSVFIFPPSDEQLKSGTASVVCLLNNFYPREAKVQWKVDNALQSGNSQESVTEQDSKDSTYSLSSTLTLSKADYEKHKVYACEVTHQGLSSPVTKSFNRGEC
notes: as for B1
As for B7, in experiment [5], the affinity, expressed as Kd, was 0.283 nM; the Response turned out to be 1.72; the koff was determined as 0.000106 s⁻¹; the kon was 376000 M⁻¹ s⁻¹. In experiment [6], this molecule returned a Kd of 0.475 nM, a Response of 1.85, a koff of 7.86e-05 s⁻¹ and a kon of 166000 M⁻¹ s⁻¹.

B8: SI-39E23 (PL230 x 806 x 420H5 x 284A10) (antibody)
heavy: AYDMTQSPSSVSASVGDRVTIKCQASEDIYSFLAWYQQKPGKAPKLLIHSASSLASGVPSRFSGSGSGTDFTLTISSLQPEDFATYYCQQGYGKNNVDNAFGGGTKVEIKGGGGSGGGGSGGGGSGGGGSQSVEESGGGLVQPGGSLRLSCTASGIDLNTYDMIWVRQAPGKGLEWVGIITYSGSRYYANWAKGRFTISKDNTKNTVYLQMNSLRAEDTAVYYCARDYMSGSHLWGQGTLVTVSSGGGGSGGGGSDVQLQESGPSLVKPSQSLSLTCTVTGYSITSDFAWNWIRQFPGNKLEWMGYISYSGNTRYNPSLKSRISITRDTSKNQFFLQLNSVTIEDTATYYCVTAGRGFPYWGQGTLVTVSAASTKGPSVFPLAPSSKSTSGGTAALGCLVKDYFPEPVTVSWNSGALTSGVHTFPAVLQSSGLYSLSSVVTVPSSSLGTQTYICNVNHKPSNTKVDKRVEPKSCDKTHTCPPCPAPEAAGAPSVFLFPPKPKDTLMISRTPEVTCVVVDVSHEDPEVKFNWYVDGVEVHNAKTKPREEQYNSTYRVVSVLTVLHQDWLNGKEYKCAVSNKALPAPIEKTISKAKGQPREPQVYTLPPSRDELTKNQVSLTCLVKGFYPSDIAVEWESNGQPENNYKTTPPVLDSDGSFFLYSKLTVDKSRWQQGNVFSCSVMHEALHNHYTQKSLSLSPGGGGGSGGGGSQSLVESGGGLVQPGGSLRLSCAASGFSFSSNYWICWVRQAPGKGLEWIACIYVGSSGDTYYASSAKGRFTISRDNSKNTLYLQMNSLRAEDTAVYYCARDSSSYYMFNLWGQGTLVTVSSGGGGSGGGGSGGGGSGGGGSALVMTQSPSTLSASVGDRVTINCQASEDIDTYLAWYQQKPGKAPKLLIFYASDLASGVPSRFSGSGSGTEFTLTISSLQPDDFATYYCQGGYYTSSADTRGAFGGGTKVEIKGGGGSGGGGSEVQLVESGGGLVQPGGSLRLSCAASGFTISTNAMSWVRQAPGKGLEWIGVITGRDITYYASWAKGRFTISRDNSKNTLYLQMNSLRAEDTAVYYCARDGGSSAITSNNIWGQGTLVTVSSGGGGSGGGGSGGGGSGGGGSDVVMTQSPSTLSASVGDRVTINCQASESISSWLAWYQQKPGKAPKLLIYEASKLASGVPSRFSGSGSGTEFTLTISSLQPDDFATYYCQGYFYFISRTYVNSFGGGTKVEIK
light: DILMTQSPSSMSVSLGDTVSITCHSSQDINSNIGWLQQRPGKSFKGLIYHGTNLDDEVPSRFSGSGSGADYSLTISSLESEDFADYYCVQYAQFPWTFGGGTKLEIKRTVAAPSVFIFPPSDEQLKSGTASVVCLLNNFYPREAKVQWKVDNALQSGNSQESVTEQDSKDSTYSLSSTLTLSKADYEKHKVYACEVTHQGLSSPVTKSFNRGEC
notes: as for B1
As for B8, in experiment [4], the dissociation constant (Kd) was 0.696 nM, the Response is 2.02, the koff is 0.000141 s⁻¹ and the kon stood at 203000 M⁻¹ s⁻¹. Also, in experiment [5], the dissociation constant (Kd) worked out at 0.0402 nM, the Response is 1.9, the off-rate (koff) came to 1.94e-05 s⁻¹ and the kon is 483000 M⁻¹ s⁻¹. Besides, in experiment [6], binding was characterised by a dissociation constant (Kd) of 0.207 nM, the Response worked out at 2.65, the dissociation rate constant (koff) was determined as 2.54e-05 s⁻¹ and the kon is 123000 M⁻¹ s⁻¹.

B9: SI-39E18 (284A10 x 806 x PL221 x 420H5) (antibody)
heavy: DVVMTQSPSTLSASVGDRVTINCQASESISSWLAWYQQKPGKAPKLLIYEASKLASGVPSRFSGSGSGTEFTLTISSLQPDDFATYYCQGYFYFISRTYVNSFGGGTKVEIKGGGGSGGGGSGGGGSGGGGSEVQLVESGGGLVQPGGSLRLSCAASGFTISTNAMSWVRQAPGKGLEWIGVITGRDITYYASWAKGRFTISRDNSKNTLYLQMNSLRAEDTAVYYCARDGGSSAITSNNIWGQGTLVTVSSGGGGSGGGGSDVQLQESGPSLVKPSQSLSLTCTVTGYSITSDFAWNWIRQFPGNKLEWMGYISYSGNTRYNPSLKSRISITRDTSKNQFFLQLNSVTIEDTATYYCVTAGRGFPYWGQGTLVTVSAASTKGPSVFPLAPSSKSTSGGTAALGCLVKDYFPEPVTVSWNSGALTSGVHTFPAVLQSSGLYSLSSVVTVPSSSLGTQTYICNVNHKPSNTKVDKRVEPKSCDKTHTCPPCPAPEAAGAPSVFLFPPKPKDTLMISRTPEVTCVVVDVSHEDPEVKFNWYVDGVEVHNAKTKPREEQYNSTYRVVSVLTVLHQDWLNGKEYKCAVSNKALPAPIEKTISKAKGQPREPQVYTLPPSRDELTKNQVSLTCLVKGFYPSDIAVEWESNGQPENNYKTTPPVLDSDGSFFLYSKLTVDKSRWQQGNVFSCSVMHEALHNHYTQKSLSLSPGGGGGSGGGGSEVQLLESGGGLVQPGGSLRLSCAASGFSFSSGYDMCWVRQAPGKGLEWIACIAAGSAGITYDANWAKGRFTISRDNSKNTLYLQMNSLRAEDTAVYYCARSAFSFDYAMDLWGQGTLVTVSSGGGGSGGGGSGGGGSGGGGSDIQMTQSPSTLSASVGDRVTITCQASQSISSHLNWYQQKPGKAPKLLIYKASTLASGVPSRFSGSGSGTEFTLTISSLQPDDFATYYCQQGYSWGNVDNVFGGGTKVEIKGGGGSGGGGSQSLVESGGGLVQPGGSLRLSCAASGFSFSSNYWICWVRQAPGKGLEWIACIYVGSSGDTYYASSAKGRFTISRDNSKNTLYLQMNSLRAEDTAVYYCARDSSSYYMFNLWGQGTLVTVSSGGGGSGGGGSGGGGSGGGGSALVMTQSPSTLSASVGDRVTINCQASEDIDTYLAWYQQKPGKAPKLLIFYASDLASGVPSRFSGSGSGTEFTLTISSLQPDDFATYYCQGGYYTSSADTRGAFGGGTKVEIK
light: DILMTQSPSSMSVSLGDTVSITCHSSQDINSNIGWLQQRPGKSFKGLIYHGTNLDDEVPSRFSGSGSGADYSLTISSLESEDFADYYCVQYAQFPWTFGGGTKLEIKRTVAAPSVFIFPPSDEQLKSGTASVVCLLNNFYPREAKVQWKVDNALQSGNSQESVTEQDSKDSTYSLSSTLTLSKADYEKHKVYACEVTHQGLSSPVTKSFNRGEC
notes: as for B1
Take B9: in experiment [4], the dissociation constant (Kd) came to 0.393 nM, the Response turned out to be 2.02, the koff was found to be 9.24e-05 s⁻¹ and the kon is 235000 M⁻¹ s⁻¹. Also, in experiment [5], binding was characterised by a dissociation constant (Kd) of 0.168 nM, the Response was found to be 1.83, the koff was 6.37e-05 s⁻¹ and the association rate constant (kon) amounted to 379000 M⁻¹ s⁻¹. In experiment [6], this molecule had a dissociation constant Kd of 0.632 nM, a Response of 1.76, a koff of 0.00011 s⁻¹ and a kon of 174000 M⁻¹ s⁻¹.

B10: SI-39E4 (PL230 x 806 x 284A10 x 420H5) (antibody)
heavy: not shown
light: DILMTQSPSSMSVSLGDTVSITCHSSQDINSNIGWLQQRPGKSFKGLIYHGTNLDDEVPSRFSGSGSGADYSLTISSLESEDFADYYCVQYAQFPWTFGGGTKLEIKRTVAAPSVFIFPPSDEQLKSGTASVVCLLNNFYPREAKVQWKVDNALQSGNSQESVTEQDSKDSTYSLSSTLTLSKADYEKHKVYACEVTHQGLSSPVTKSFNRGEC
notes: Tetra-specific antibody, symmetric dimer; also called SI-39E04; 39 E04
Regarding B10, in experiment [4], binding was put at a Kd of 0.354 nM, the Response was 2.42, the koff was found to be 5.91e-05 s⁻¹ and the kon stood at 167000 M⁻¹ s⁻¹. For the same molecule, in experiment [5], the Kd was 0.0723 nM, the Response stood at 2.15, the off-rate (koff) turned out to be 2.41e-05 s⁻¹ and the association rate constant (kon) came to 333000 M⁻¹ s⁻¹. In addition, in experiment [6], the Kd is less than 0.001 nM, the Response was 1.97, the off-rate (koff) is less than 1e-07 s⁻¹ and the kon was 86100 M⁻¹ s⁻¹.
